# Test results published in US20210032299A1 (Eli Lilly, published 2021).
# Numbering of substitutions follows the chain as printed. Starred links: 1 amine or outer side, 2 acyl side, 3 side chain; linkers in the order of their positions; H or OH if unused. Non-standard residues stand in square brackets, D forms with d. Groups on a side chain read outwards from the residue. No end group written: not given here. *: point of attachment. C20 diacid = O=C(O)CCCCCCCCCCCCCCCCCCC(=O)*; C18 diacid = O=C(O)CCCCCCCCCCCCCCCCC(=O)*; γGlu = O=C(O)[C@H](CCC(=O)[*:2])N[*:1]; αMeF = C[C@](N)(Cc1ccccc1)C(=O)O; 4Pal = N[C@@H](Cc1ccncc1)C(=O)O; AEEA = NCCOCCOCC(=O)O; Aib = CC(C)(N)C(=O)O
# T1: human glucose-dependent insulinotropic peptide receptor (human, UniProt P48546 22-466)
# T1 sequence (looked up): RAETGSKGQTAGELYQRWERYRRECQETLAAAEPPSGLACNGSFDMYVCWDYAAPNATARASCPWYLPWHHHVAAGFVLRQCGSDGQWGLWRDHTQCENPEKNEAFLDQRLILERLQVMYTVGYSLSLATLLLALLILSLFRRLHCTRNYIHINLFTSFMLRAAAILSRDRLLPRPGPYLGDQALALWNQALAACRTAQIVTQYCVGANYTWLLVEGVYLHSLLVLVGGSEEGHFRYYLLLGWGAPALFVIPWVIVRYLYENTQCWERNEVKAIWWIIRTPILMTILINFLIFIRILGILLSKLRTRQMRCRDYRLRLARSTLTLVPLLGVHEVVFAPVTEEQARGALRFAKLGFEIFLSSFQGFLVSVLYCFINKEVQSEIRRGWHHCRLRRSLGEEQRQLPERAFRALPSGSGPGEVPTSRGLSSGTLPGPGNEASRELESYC
# B1: Example 22 (peptide)
# peptide: Y[Aib]EGTFISDYSILLDKK([AEEA-AEEA-γGlu-C18 diacid])HQ[Aib]DFVE[4Pal]LLAGGPSSGAPPPS-NH2
# modifications: N-terminus assumed
# SMILES: CC[C@H](C)[C@H](NC(=O)[C@H](CO)NC(=O)[C@H](Cc1ccc(O)cc1)NC(=O)[C@H](CC(=O)O)NC(=O)[C@H](CO)NC(=O)[C@@H](NC(=O)[C@H](Cc1ccccc1)NC(=O)[C@@H](NC(=O)CNC(=O)[C@H](CCC(=O)O)NC(=O)C(C)(C)NC(=O)[C@@H](N)Cc1ccc(O)cc1)[C@@H](C)O)[C@@H](C)CC)C(=O)N[C@@H](CC(C)C)C(=O)N[C@@H](CC(C)C)C(=O)N[C@@H](CC(=O)O)C(=O)N[C@@H](CCCCN)C(=O)N[C@@H](CCCCNC(=O)COCCOCCNC(=O)COCCOCCNC(=O)CC[C@H](NC(=O)CCCCCCCCCCCCCCCCC(=O)O)C(=O)O)C(=O)N[C@@H](Cc1c[nH]cn1)C(=O)N[C@@H](CCC(N)=O)C(=O)NC(C)(C)C(=O)N[C@@H](CC(=O)O)C(=O)N[C@@H](Cc1ccccc1)C(=O)N[C@H](C(=O)N[C@@H](CCC(=O)O)C(=O)N[C@@H](Cc1ccncc1)C(=O)N[C@@H](CC(C)C)C(=O)N[C@@H](CC(C)C)C(=O)N[C@@H](C)C(=O)NCC(=O)NCC(=O)N1CCC[C@H]1C(=O)N[C@@H](CO)C(=O)N[C@@H](CO)C(=O)NCC(=O)N[C@@H](C)C(=O)N1CCC[C@H]1C(=O)N1CCC[C@H]1C(=O)N1CCC[C@H]1C(=O)N[C@@H](CO)C(N)=O)C(C)C
# B2: Example 24 (peptide)
# peptide: Y[Aib]EGTFISDYSI[Aib]LDKK([AEEA-AEEA-γGlu-C18 diacid])HQ[Aib]DFVE[4Pal]LLAGGPSSGAPPPS-NH2
# modifications: N-terminus assumed
# SMILES: CC[C@H](C)[C@H](NC(=O)[C@H](Cc1ccccc1)NC(=O)[C@@H](NC(=O)CNC(=O)[C@H](CCC(=O)O)NC(=O)C(C)(C)NC(=O)[C@@H](N)Cc1ccc(O)cc1)[C@@H](C)O)C(=O)N[C@@H](CO)C(=O)N[C@@H](CC(=O)O)C(=O)N[C@@H](Cc1ccc(O)cc1)C(=O)N[C@@H](CO)C(=O)N[C@H](C(=O)NC(C)(C)C(=O)N[C@@H](CC(C)C)C(=O)N[C@@H](CC(=O)O)C(=O)N[C@@H](CCCCN)C(=O)N[C@@H](CCCCNC(=O)COCCOCCNC(=O)COCCOCCNC(=O)CC[C@H](NC(=O)CCCCCCCCCCCCCCCCC(=O)O)C(=O)O)C(=O)N[C@@H](Cc1c[nH]cn1)C(=O)N[C@@H](CCC(N)=O)C(=O)NC(C)(C)C(=O)N[C@@H](CC(=O)O)C(=O)N[C@@H](Cc1ccccc1)C(=O)N[C@H](C(=O)N[C@@H](CCC(=O)O)C(=O)N[C@@H](Cc1ccncc1)C(=O)N[C@@H](CC(C)C)C(=O)N[C@@H](CC(C)C)C(=O)N[C@@H](C)C(=O)NCC(=O)NCC(=O)N1CCC[C@H]1C(=O)N[C@@H](CO)C(=O)N[C@@H](CO)C(=O)NCC(=O)N[C@@H](C)C(=O)N1CCC[C@H]1C(=O)N1CCC[C@H]1C(=O)N1CCC[C@H]1C(=O)N[C@@H](CO)C(N)=O)C(C)C)[C@@H](C)CC
# B3: Example 21 (peptide)
# peptide: Y[Aib]EGTFISDYSIALDKK([AEEA-AEEA-γGlu-C18 diacid])HQ[Aib]DFVE[4Pal]LLAGGPSSGAPPPS-NH2
# modifications: N-terminus assumed
# SMILES: CC[C@H](C)[C@H](NC(=O)[C@H](CO)NC(=O)[C@H](Cc1ccc(O)cc1)NC(=O)[C@H](CC(=O)O)NC(=O)[C@H](CO)NC(=O)[C@@H](NC(=O)[C@H](Cc1ccccc1)NC(=O)[C@@H](NC(=O)CNC(=O)[C@H](CCC(=O)O)NC(=O)C(C)(C)NC(=O)[C@@H](N)Cc1ccc(O)cc1)[C@@H](C)O)[C@@H](C)CC)C(=O)N[C@@H](C)C(=O)N[C@@H](CC(C)C)C(=O)N[C@@H](CC(=O)O)C(=O)N[C@@H](CCCCN)C(=O)N[C@@H](CCCCNC(=O)COCCOCCNC(=O)COCCOCCNC(=O)CC[C@H](NC(=O)CCCCCCCCCCCCCCCCC(=O)O)C(=O)O)C(=O)N[C@@H](Cc1c[nH]cn1)C(=O)N[C@@H](CCC(N)=O)C(=O)NC(C)(C)C(=O)N[C@@H](CC(=O)O)C(=O)N[C@@H](Cc1ccccc1)C(=O)N[C@H](C(=O)N[C@@H](CCC(=O)O)C(=O)N[C@@H](Cc1ccncc1)C(=O)N[C@@H](CC(C)C)C(=O)N[C@@H](CC(C)C)C(=O)N[C@@H](C)C(=O)NCC(=O)NCC(=O)N1CCC[C@H]1C(=O)N[C@@H](CO)C(=O)N[C@@H](CO)C(=O)NCC(=O)N[C@@H](C)C(=O)N1CCC[C@H]1C(=O)N1CCC[C@H]1C(=O)N1CCC[C@H]1C(=O)N[C@@H](CO)C(N)=O)C(C)C
# B4: Example 23 (peptide)
# peptide: Y[Aib]EGT[αMeF]ISDYSIALDKK([AEEA-AEEA-γGlu-C18 diacid])HQ[Aib]DFVE[4Pal]LLAGGPSSGAPPPS-NH2
# modifications: N-terminus assumed
# SMILES: CC[C@H](C)[C@H](NC(=O)[C@H](CO)NC(=O)[C@H](Cc1ccc(O)cc1)NC(=O)[C@H](CC(=O)O)NC(=O)[C@H](CO)NC(=O)[C@@H](NC(=O)[C@](C)(Cc1ccccc1)NC(=O)[C@@H](NC(=O)CNC(=O)[C@H](CCC(=O)O)NC(=O)C(C)(C)NC(=O)[C@@H](N)Cc1ccc(O)cc1)[C@@H](C)O)[C@@H](C)CC)C(=O)N[C@@H](C)C(=O)N[C@@H](CC(C)C)C(=O)N[C@@H](CC(=O)O)C(=O)N[C@@H](CCCCN)C(=O)N[C@@H](CCCCNC(=O)COCCOCCNC(=O)COCCOCCNC(=O)CC[C@H](NC(=O)CCCCCCCCCCCCCCCCC(=O)O)C(=O)O)C(=O)N[C@@H](Cc1c[nH]cn1)C(=O)N[C@@H](CCC(N)=O)C(=O)NC(C)(C)C(=O)N[C@@H](CC(=O)O)C(=O)N[C@@H](Cc1ccccc1)C(=O)N[C@H](C(=O)N[C@@H](CCC(=O)O)C(=O)N[C@@H](Cc1ccncc1)C(=O)N[C@@H](CC(C)C)C(=O)N[C@@H](CC(C)C)C(=O)N[C@@H](C)C(=O)NCC(=O)NCC(=O)N1CCC[C@H]1C(=O)N[C@@H](CO)C(=O)N[C@@H](CO)C(=O)NCC(=O)N[C@@H](C)C(=O)N1CCC[C@H]1C(=O)N1CCC[C@H]1C(=O)N1CCC[C@H]1C(=O)N[C@@H](CO)C(N)=O)C(C)C
# B5: Example 25 (peptide)
# peptide: Y[Aib]EGT[αMeF]ISDYSIALDKK([AEEA-AEEA-γGlu-C20 diacid])HQ[Aib]EFVNWLLAGGPSSGAPPPS-NH2
# modifications: N-terminus assumed
# SMILES: CC[C@H](C)[C@H](NC(=O)[C@H](CO)NC(=O)[C@H](Cc1ccc(O)cc1)NC(=O)[C@H](CC(=O)O)NC(=O)[C@H](CO)NC(=O)[C@@H](NC(=O)[C@](C)(Cc1ccccc1)NC(=O)[C@@H](NC(=O)CNC(=O)[C@H](CCC(=O)O)NC(=O)C(C)(C)NC(=O)[C@@H](N)Cc1ccc(O)cc1)[C@@H](C)O)[C@@H](C)CC)C(=O)N[C@@H](C)C(=O)N[C@@H](CC(C)C)C(=O)N[C@@H](CC(=O)O)C(=O)N[C@@H](CCCCN)C(=O)N[C@@H](CCCCNC(=O)COCCOCCNC(=O)COCCOCCNC(=O)CC[C@H](NC(=O)CCCCCCCCCCCCCCCCCCC(=O)O)C(=O)O)C(=O)N[C@@H](Cc1c[nH]cn1)C(=O)N[C@@H](CCC(N)=O)C(=O)NC(C)(C)C(=O)N[C@@H](CCC(=O)O)C(=O)N[C@@H](Cc1ccccc1)C(=O)N[C@H](C(=O)N[C@@H](CC(N)=O)C(=O)N[C@@H](Cc1c[nH]c2ccccc12)C(=O)N[C@@H](CC(C)C)C(=O)N[C@@H](CC(C)C)C(=O)N[C@@H](C)C(=O)NCC(=O)NCC(=O)N1CCC[C@H]1C(=O)N[C@@H](CO)C(=O)N[C@@H](CO)C(=O)NCC(=O)N[C@@H](C)C(=O)N1CCC[C@H]1C(=O)N1CCC[C@H]1C(=O)N1CCC[C@H]1C(=O)N[C@@H](CO)C(N)=O)C(C)C
# B6: Example 16 (peptide)
# peptide: YXEGTFISDYSILLDKKAQXDFVEWLLAQGPSSGAPPPS
# modifications: D-Ala2; K17((2-[2-(2-Amino-ethoxy)-ethoxy]-acetyl)2-(γ-Glu)-CO-(CH2)16-CO2H); Aib20; C-terminal amide
# B7: Example 20 (peptide)
# peptide: B6 peptide with D21E, E24N
# modifications: D-Ala2; K17((2-[2-(2-Amino-ethoxy)-ethoxy]-acetyl)2-(γ-Glu)-CO-(CH2)16-CO2H); Aib20; C-terminal amide
# B8: Example 17 (peptide)
# peptide: B6 peptide with E24N, A28E
# modifications: D-Ala2; K17((2-[2-(2-Amino-ethoxy)-ethoxy]-acetyl)2-(γ-Glu)-CO-(CH2)16-CO2H); Aib20; C-terminal amide
# B9: Example 19 (peptide)
# peptide: B6 peptide with E24N, Q29G
# modifications: D-Ala2; K17((2-[2-(2-Amino-ethoxy)-ethoxy]-acetyl)2-(γ-Glu)-CO-(CH2)16-CO2H); Aib20; C-terminal amide
# B10: Example 18 (peptide)
# peptide: B6 peptide with E24N, W25X
# modifications: D-Ala2; K17((2-[2-(2-Amino-ethoxy)-ethoxy]-acetyl)2-(γ-Glu)-CO-(CH2)16-CO2H); Aib20; 4-Pal25; C-terminal amide
# Molecular target: human GLP-1 receptor (human, UniProt P43220 24-463)
# Experiment: cell-based or functional assay
row,Binder,hGLP1R cAMP Rel EC50
1,B1,> 5000 nM
2,B2,> 5000 nM
3,B3,> 5000 nM
4,B4,206 nM
5,B5,8.39 nM
6,B6,> 5000 nM
7,B7,> 5000 nM
8,B8,> 5000 nM
9,B9,> 5000 nM
10,B10,> 5000 nM

# Molecular target: human glucagon receptor (human, UniProt P47871 26-477)
# Sequence (P47871 26-477): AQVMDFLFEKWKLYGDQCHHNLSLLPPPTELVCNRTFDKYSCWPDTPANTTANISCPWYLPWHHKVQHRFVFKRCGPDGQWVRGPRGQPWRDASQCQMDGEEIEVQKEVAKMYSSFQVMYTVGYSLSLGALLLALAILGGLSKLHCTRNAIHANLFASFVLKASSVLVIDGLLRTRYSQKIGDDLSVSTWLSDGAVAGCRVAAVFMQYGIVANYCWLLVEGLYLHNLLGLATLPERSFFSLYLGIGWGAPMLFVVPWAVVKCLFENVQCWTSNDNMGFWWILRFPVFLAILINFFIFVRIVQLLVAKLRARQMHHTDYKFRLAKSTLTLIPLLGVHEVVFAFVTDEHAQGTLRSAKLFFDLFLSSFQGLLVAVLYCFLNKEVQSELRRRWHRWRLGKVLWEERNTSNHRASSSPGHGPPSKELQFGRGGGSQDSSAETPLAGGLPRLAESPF
# Experiment: cell-based or functional assay
row,Binder,hGcgR cAMP Rel EC50
1,B1,1250 nM
2,B2,> 5000 nM
3,B3,> 5000 nM
4,B4,> 5000 nM
5,B5,> 5000 nM
6,B6,> 5000 nM
7,B7,> 5000 nM
8,B8,> 5000 nM
9,B9,> 5000 nM
10,B10,> 5000 nM

# Molecular target: T1, human glucose-dependent insulinotropic …
# Experiment: cell-based or functional assay
row,Binder,hGIPR cAMP Rel EC50
1,B1,0.0345 nM
2,B2,0.0699 nM
3,B3,0.291 nM
4,B4,0.0192 nM
5,B5,0.0155 nM
6,B6,0.00937 nM
7,B7,0.00933 nM
8,B8,0.0135 nM
9,B9,0.00992 nM
10,B10,0.00656 nM
